In patent US12679878B2, “CRF2 receptor agonists and their use in therapy” (SANOFI, priority 2020, dated 2026) one finds EC50 [nM], 0% HSA and EC50 [nM], 0.1% HSA data, which are given here for four molecules.

The assay deals with human corticotropin-releasing factor 2α (CRF2 α receptor) (human), Q13324. Put plainly: cell-based or functional assay.

Starred links: 1 amine or outer side, 2 acyl side, 3 side chain; linkers in the order of their positions; H or OH if unused. Non-standard residues stand in square brackets, D forms with d. Groups on a side chain read outwards from the residue. No end group written: not given here. *: point of attachment. C18 diacid = O=C(O)CCCCCCCCCCCCCCCCC(=O)*; γGlu = O=C(O)[C@H](CCC(=O)[*:2])N[*:1]; Palmitoyl = CCCCCCCCCCCCCCCC(=O)*; AEEA = NCCOCCOCC(=O)O; Aib = CC(C)(N)C(=O)O

Chain of human corticotropin-releasing factor 2α (CRF2 α receptor) (human), Q13324 (Q13324 20-411): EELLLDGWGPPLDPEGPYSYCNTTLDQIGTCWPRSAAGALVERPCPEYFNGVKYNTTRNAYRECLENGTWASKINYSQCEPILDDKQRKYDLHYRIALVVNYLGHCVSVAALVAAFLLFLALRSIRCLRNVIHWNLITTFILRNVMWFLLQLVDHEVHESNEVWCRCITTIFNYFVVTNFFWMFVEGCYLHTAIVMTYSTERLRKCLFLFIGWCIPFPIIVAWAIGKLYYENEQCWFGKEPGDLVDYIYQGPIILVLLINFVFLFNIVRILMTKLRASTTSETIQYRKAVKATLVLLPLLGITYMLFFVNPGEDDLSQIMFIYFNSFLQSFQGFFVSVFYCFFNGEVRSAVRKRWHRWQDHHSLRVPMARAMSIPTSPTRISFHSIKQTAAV

B1: SEQ ID NO: 11 (peptide)
peptide: FTLSLDVPTKIK([γGlu-Palmitoyl])QKLLKQEKQKKQRQKAKTNAQILAQV-NH2
modifications: N-terminus assumed
SMILES: CCCCCCCCCCCCCCCC(=O)N[C@@H](CCC(=O)NCCCC[C@H](NC(=O)[C@@H](NC(=O)[C@H](CCCCN)NC(=O)[C@@H](NC(=O)[C@@H]1CCCN1C(=O)[C@@H](NC(=O)[C@H](CC(=O)O)NC(=O)[C@H](CC(C)C)NC(=O)[C@H](CO)NC(=O)[C@H](CC(C)C)NC(=O)[C@@H](NC(=O)[C@@H](N)Cc1ccccc1)[C@@H](C)O)C(C)C)[C@@H](C)O)[C@@H](C)CC)C(=O)N[C@@H](CCC(N)=O)C(=O)N[C@@H](CCCCN)C(=O)N[C@@H](CC(C)C)C(=O)N[C@@H](CC(C)C)C(=O)N[C@@H](CCCCN)C(=O)N[C@@H](CCC(N)=O)C(=O)N[C@@H](CCC(=O)O)C(=O)N[C@@H](CCCCN)C(=O)N[C@@H](CCC(N)=O)C(=O)N[C@@H](CCCCN)C(=O)N[C@@H](CCCCN)C(=O)N[C@@H](CCC(N)=O)C(=O)N[C@@H](CCCNC(=N)N)C(=O)N[C@@H](CCC(N)=O)C(=O)N[C@@H](CCCCN)C(=O)N[C@@H](C)C(=O)N[C@@H](CCCCN)C(=O)N[C@H](C(=O)N[C@@H](CC(N)=O)C(=O)N[C@@H](C)C(=O)N[C@@H](CCC(N)=O)C(=O)N[C@H](C(=O)N[C@@H](CC(C)C)C(=O)N[C@@H](C)C(=O)N[C@@H](CCC(N)=O)C(=O)N[C@H](C(N)=O)C(C)C)[C@@H](C)CC)[C@@H](C)O)C(=O)O
B1: the EC50 [nM], 0% HSA came out at 0.02 nM.

B2: SEQ ID NO: 116 (peptide)
peptide: IVLSLDVPIKLK([AEEA-AEEA-γGlu-C18 diacid])QILLKQERQK[Aib]QREKAEKNKQILAQV-NH2
modifications: N-terminus assumed
SMILES: CC[C@H](C)[C@H](N)C(=O)N[C@H](C(=O)N[C@@H](CC(C)C)C(=O)N[C@@H](CO)C(=O)N[C@@H](CC(C)C)C(=O)N[C@@H](CC(=O)O)C(=O)N[C@H](C(=O)N1CCC[C@H]1C(=O)N[C@H](C(=O)N[C@@H](CCCCN)C(=O)N[C@@H](CC(C)C)C(=O)N[C@@H](CCCCNC(=O)COCCOCCNC(=O)COCCOCCNC(=O)CC[C@H](NC(=O)CCCCCCCCCCCCCCCCC(=O)O)C(=O)O)C(=O)N[C@@H](CCC(N)=O)C(=O)N[C@H](C(=O)N[C@@H](CC(C)C)C(=O)N[C@@H](CC(C)C)C(=O)N[C@@H](CCCCN)C(=O)N[C@@H](CCC(N)=O)C(=O)N[C@@H](CCC(=O)O)C(=O)N[C@@H](CCCNC(=N)N)C(=O)N[C@@H](CCC(N)=O)C(=O)N[C@@H](CCCCN)C(=O)NC(C)(C)C(=O)N[C@@H](CCC(N)=O)C(=O)N[C@@H](CCCNC(=N)N)C(=O)N[C@@H](CCC(=O)O)C(=O)N[C@@H](CCCCN)C(=O)N[C@@H](C)C(=O)N[C@@H](CCC(=O)O)C(=O)N[C@@H](CCCCN)C(=O)N[C@@H](CC(N)=O)C(=O)N[C@@H](CCCCN)C(=O)N[C@@H](CCC(N)=O)C(=O)N[C@H](C(=O)N[C@@H](CC(C)C)C(=O)N[C@@H](C)C(=O)N[C@@H](CCC(N)=O)C(=O)N[C@H](C(N)=O)C(C)C)[C@@H](C)CC)[C@@H](C)CC)[C@@H](C)CC)C(C)C)C(C)C
For B2, the EC50 [nM], 0% HSA is 0.7 nM.

B3: SEQ ID NO: 118 (peptide)
peptide: IVLSLD[dV]PIKLK([AEEA-AEEA-γGlu-C18 diacid])QILLKQERQK[Aib]QRQKAEKNKQILAQV-NH2
modifications: N-terminus assumed
SMILES: CC[C@H](C)[C@H](N)C(=O)N[C@H](C(=O)N[C@@H](CC(C)C)C(=O)N[C@@H](CO)C(=O)N[C@@H](CC(C)C)C(=O)N[C@@H](CC(=O)O)C(=O)N[C@@H](C(=O)N1CCC[C@H]1C(=O)N[C@H](C(=O)N[C@@H](CCCCN)C(=O)N[C@@H](CC(C)C)C(=O)N[C@@H](CCCCNC(=O)COCCOCCNC(=O)COCCOCCNC(=O)CC[C@H](NC(=O)CCCCCCCCCCCCCCCCC(=O)O)C(=O)O)C(=O)N[C@@H](CCC(N)=O)C(=O)N[C@H](C(=O)N[C@@H](CC(C)C)C(=O)N[C@@H](CC(C)C)C(=O)N[C@@H](CCCCN)C(=O)N[C@@H](CCC(N)=O)C(=O)N[C@@H](CCC(=O)O)C(=O)N[C@@H](CCCNC(=N)N)C(=O)N[C@@H](CCC(N)=O)C(=O)N[C@@H](CCCCN)C(=O)NC(C)(C)C(=O)N[C@@H](CCC(N)=O)C(=O)N[C@@H](CCCNC(=N)N)C(=O)N[C@@H](CCC(N)=O)C(=O)N[C@@H](CCCCN)C(=O)N[C@@H](C)C(=O)N[C@@H](CCC(=O)O)C(=O)N[C@@H](CCCCN)C(=O)N[C@@H](CC(N)=O)C(=O)N[C@@H](CCCCN)C(=O)N[C@@H](CCC(N)=O)C(=O)N[C@H](C(=O)N[C@@H](CC(C)C)C(=O)N[C@@H](C)C(=O)N[C@@H](CCC(N)=O)C(=O)N[C@H](C(N)=O)C(C)C)[C@@H](C)CC)[C@@H](C)CC)[C@@H](C)CC)C(C)C)C(C)C
In the case of B3, the EC50 [nM], 0% HSA worked out at 0.04 nM and the EC50 [nM], 0.1% HSA was 2.13 nM.

B4: SEQ ID NO: 117 (peptide)
peptide: IVLSLDVPIKLK([AEEA-AEEA-γGlu-C18 diacid])QILLKQERQK[Aib]QRQQAEKNKQILAQV-NH2
modifications: N-terminus assumed
SMILES: CC[C@H](C)[C@H](N)C(=O)N[C@H](C(=O)N[C@@H](CC(C)C)C(=O)N[C@@H](CO)C(=O)N[C@@H](CC(C)C)C(=O)N[C@@H](CC(=O)O)C(=O)N[C@H](C(=O)N1CCC[C@H]1C(=O)N[C@H](C(=O)N[C@@H](CCCCN)C(=O)N[C@@H](CC(C)C)C(=O)N[C@@H](CCCCNC(=O)COCCOCCNC(=O)COCCOCCNC(=O)CC[C@H](NC(=O)CCCCCCCCCCCCCCCCC(=O)O)C(=O)O)C(=O)N[C@@H](CCC(N)=O)C(=O)N[C@H](C(=O)N[C@@H](CC(C)C)C(=O)N[C@@H](CC(C)C)C(=O)N[C@@H](CCCCN)C(=O)N[C@@H](CCC(N)=O)C(=O)N[C@@H](CCC(=O)O)C(=O)N[C@@H](CCCNC(=N)N)C(=O)N[C@@H](CCC(N)=O)C(=O)N[C@@H](CCCCN)C(=O)NC(C)(C)C(=O)N[C@@H](CCC(N)=O)C(=O)N[C@@H](CCCNC(=N)N)C(=O)N[C@@H](CCC(N)=O)C(=O)N[C@@H](CCC(N)=O)C(=O)N[C@@H](C)C(=O)N[C@@H](CCC(=O)O)C(=O)N[C@@H](CCCCN)C(=O)N[C@@H](CC(N)=O)C(=O)N[C@@H](CCCCN)C(=O)N[C@@H](CCC(N)=O)C(=O)N[C@H](C(=O)N[C@@H](CC(C)C)C(=O)N[C@@H](C)C(=O)N[C@@H](CCC(N)=O)C(=O)N[C@H](C(N)=O)C(C)C)[C@@H](C)CC)[C@@H](C)CC)[C@@H](C)CC)C(C)C)C(C)C
B4 yielded an EC50 [nM], 0% HSA of 0.11 nM.
